Reference: US20170355766A1 (Xencor, published 2017)
Like-named read-outs stand apart in the source and are kept apart here.

T1: human H131 FcγRIIa receptor protein (6xHis and GST tags) (human, UniProt P12318 34-217, limits assumed)
T1 construct: also called HIIa
T1 sequence (looked up): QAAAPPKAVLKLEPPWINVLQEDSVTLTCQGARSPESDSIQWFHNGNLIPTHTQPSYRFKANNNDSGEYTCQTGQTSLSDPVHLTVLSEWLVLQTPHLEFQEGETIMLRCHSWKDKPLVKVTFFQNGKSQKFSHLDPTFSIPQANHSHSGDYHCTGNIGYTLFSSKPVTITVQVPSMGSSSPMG

T2: human FcγRIIb receptor protein (R&D Systems) (human, UniProt P31994 46-217)
T2 construct: Analyte injected over antibodies captured on a protein A/G chip (Biacore); also called CD32b
T2 sequence (looked up): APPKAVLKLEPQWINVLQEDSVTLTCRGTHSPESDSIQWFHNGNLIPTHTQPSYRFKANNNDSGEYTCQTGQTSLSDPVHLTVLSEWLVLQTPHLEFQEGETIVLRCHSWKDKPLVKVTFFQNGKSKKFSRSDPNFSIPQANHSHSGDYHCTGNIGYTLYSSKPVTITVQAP

T3: FcγRIIaR (human, UniProt P12318)
T3 construct: recombinant receptor protein with 6xHis and GST tags; also called R131 FcγRIIa
T3 sequence (receptor, looked up): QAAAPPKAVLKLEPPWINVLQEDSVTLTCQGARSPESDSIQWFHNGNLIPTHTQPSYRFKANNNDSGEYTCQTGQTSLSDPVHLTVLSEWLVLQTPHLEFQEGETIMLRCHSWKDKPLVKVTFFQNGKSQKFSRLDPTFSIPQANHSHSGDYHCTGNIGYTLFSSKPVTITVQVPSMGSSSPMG

T4: human FcγRIIb on the cell surface (HEK293T cells transfected with human FcγRIIb cDNA; primary human B cells) (human, UniProt P31994 43-310)
T4 chain: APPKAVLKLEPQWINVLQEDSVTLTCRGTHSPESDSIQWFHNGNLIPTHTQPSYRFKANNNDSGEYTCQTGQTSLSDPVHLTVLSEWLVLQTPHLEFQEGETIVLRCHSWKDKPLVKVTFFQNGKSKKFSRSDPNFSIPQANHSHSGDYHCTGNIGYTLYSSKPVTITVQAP


Assays:
[1] = target: T5, human FcγRI receptor protein (R&D Systems) (human, UniProt P12314 16-288); assay: SPR (Biacore)
T5 construct: also called CD64
T5 sequence (P12314 16-288 limits assumed): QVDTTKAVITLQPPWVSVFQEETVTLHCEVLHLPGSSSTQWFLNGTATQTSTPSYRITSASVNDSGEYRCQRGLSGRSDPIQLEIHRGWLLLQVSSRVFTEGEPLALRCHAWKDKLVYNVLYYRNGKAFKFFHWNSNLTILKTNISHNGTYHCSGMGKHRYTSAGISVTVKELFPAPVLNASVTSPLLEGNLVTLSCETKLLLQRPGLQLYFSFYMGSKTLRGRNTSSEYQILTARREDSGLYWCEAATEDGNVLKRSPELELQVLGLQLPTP

[2] = target: T6, human V158 FcγRIIIa receptor protein (6xHis and GST tags) (human, UniProt P08637 17-208, limits assumed); assay: SPR (Biacore)
T6 construct: also called VIIIa
T6 sequence (P08637 17-208 F176V limits assumed): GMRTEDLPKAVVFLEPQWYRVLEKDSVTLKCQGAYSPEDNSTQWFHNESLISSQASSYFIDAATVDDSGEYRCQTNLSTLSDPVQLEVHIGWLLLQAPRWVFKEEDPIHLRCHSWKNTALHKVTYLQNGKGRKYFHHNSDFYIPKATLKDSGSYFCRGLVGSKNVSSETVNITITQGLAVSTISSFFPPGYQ

[3] = target: T1, human H131 FcγRIIa receptor protein …; assay: SPR (Biacore)
[4] = target: T2, human FcγRIIb receptor protein (R&D …); assay: SPR (Biacore)
FcγRIIaR = target: T3, FcγRIIaR; assay: SPR (Biacore)
[5] = target: T2, human FcγRIIb receptor protein (R&D …); assay: Biacore SPR ('according to the data herein')
Description: Variants were screened for receptor affinity using Biacore™ technology, also referred to as Biacore herein, a surface plasmon resonance (SPR) based technology for studying biomolecular interactions in real time. SPR measurements were performed using a Biacore 3000 instrument (Biacore, Piscataway, N.J.). A protein A/G (Pierce Biotechnology) CM5 biosensor chip (Biacore) was generated using a standard primary amine coupling protocol. All measurements were performed using HBS-EP buffer (10 mM HEPES pH 7.4, 0.15 M NaCl, 3 mM EDTA, 0.005% vol/vol surfactant P20, Biacore). Antibodies at 20 nM or 50 nM in HBS-EP buffer were immobilized on the protein A/G surface and FcγRs were injected. After each cycle, the surface was regenerated by injecting glycine buffer (10 mM, pH 1.5). Data were processed by zeroing time and response before the injection of FcγR and by subtracting appropriate nonspecific signals (response of reference channel and injection of running buffer). Kinetic analyses were performed by global fitting of binding data with a 1:1 Langmuir binding model using BIAevaluation software (Biacore).

FcγRIIIaF = target: T7, FcγRIIIaF (human, UniProt P08637); assay: SPR (Biacore)
T7 construct: recombinant receptor protein with 6xHis and GST tags; also called F158 FcγRIIIa
T7 sequence (P08637 17-208 limits assumed): as the sequence (P08637 17-208 F176V limits assumed) above, with V160F counted along it

[6] = target: T4, human FcγRIIb on the cell surface …; assay: flow cytometry on FcγRIIb-transfected HEK293T cells
[7] = target: T4, human FcγRIIb on the cell surface …; assay: as above
[8] = target: T4, human FcγRIIb on the cell surface …; assay: as above

Binder | Fold FcγRI [1] [fold] | Fold FcγRIIIaV [2] [fold] | Fold FcγRIIaH [3] [fold] | Fold FcγRIIb [4] [fold] | Fold FcγRIIaR (FcγRIIaR) [fold] | binding result [2] | binding result (FcγRIIIaF) | EC50 (read off the curve) [6] [ng/mL] | also measured
anti-CD19 WT IgG1 antibody (HuAM4G7 Fv, native human IgG1 Fc) (antibody, Parent of the Fc variants; also called anti-CD19-IgG1; anti-CD19 IgG1 WT; copies: 2 + 2) heavy: not shown light: DIVMTQSPATLSLSPGERATLSCRSSKSLQNVNGNTYLYWFQQKPGQSPQLLIYRMSNLNSGVPDRFSGSGSGTEFTLTISSLEPEDFAVYYCMQHLEYPITFGAGTKLEIKRTVAAPSVFIFPPSDEQLKSGTASVVCLLNNFYPREAKVQWKVDNALQSGNSQESVTEQDSKDSTYSLSSTLTLSKADYEKHKVYACEVTHQGLSSPVTKSFNRGEC | 1 | 1 | 1 | 1 | 1 |  |  |  | Kd [5]: ~1500 nM
S239D (antibody, human IgG1, kappa, HuAM4G7 IgG1 Fc variant) heavy: not shown light: DIVMTQSPATLSLSPGERATLSCRSSKSLQNVNGNTYLYWFQQKPGQSPQLLIYRMSNLNSGVPDRFSGSGSGTEFTLTISSLEPEDFAVYYCMQHLEYPITFGAGTKLEIKRTVAAPSVFIFPPSDEQLKSGTASVVCLLNNFYPREAKVQWKVDNALQSGNSQESVTEQDSKDSTYSLSSTLTLSKADYEKHKVYACEVTHQGLSSPVTKSFNRGEC | 3.53 | 8.14 | 1.1 | 3.6 | 3.73 |  |  |  | Fold FcγRIIIaF (FcγRIIIaF): 6.32 fold
G236D (antibody, human IgG1, kappa, HuAM4G7 IgG1 Fc variant) heavy: not shown light: DIVMTQSPATLSLSPGERATLSCRSSKSLQNVNGNTYLYWFQQKPGQSPQLLIYRMSNLNSGVPDRFSGSGSGTEFTLTISSLEPEDFAVYYCMQHLEYPITFGAGTKLEIKRTVAAPSVFIFPPSDEQLKSGTASVVCLLNNFYPREAKVQWKVDNALQSGNSQESVTEQDSKDSTYSLSSTLTLSKADYEKHKVYACEVTHQGLSSPVTKSFNRGEC | 0.0211 |  | 0.167 | 1.54 | 0.758 | no binding | no binding |  | 
anti-CD19 antibody HuAM4G7 IgG1 Fc variant L235Y/S267E (antibody, Positions are EU numbers, not positions on the UniProt entry; copies: 2 + 2) heavy: not shown light: DIVMTQSPATLSLSPGERATLSCRSSKSLQNVNGNTYLYWFQQKPGQSPQLLIYRMSNLNSGVPDRFSGSGSGTEFTLTISSLEPEDFAVYYCMQHLEYPITFGAGTKLEIKRTVAAPSVFIFPPSDEQLKSGTASVVCLLNNFYPREAKVQWKVDNALQSGNSQESVTEQDSKDSTYSLSSTLTLSKADYEKHKVYACEVTHQGLSSPVTKSFNRGEC | 0.00347 |  | 0.941 | 37.2 | 37.5 |  |  |  | EC50 (read off the curve) [8]: ~6 ng/mL
S267E/A327E (antibody, human IgG1, kappa, HuAM4G7 IgG1 Fc variant) heavy: not shown light: DIVMTQSPATLSLSPGERATLSCRSSKSLQNVNGNTYLYWFQQKPGQSPQLLIYRMSNLNSGVPDRFSGSGSGTEFTLTISSLEPEDFAVYYCMQHLEYPITFGAGTKLEIKRTVAAPSVFIFPPSDEQLKSGTASVVCLLNNFYPREAKVQWKVDNALQSGNSQESVTEQDSKDSTYSLSSTLTLSKADYEKHKVYACEVTHQGLSSPVTKSFNRGEC | 2.3 |  |  | 30.9 | 29.3 |  |  | ~10 | 
V266M/S267E (antibody, human IgG1, kappa, HuAM4G7 IgG1 Fc variant) heavy: not shown light: DIVMTQSPATLSLSPGERATLSCRSSKSLQNVNGNTYLYWFQQKPGQSPQLLIYRMSNLNSGVPDRFSGSGSGTEFTLTISSLEPEDFAVYYCMQHLEYPITFGAGTKLEIKRTVAAPSVFIFPPSDEQLKSGTASVVCLLNNFYPREAKVQWKVDNALQSGNSQESVTEQDSKDSTYSLSSTLTLSKADYEKHKVYACEVTHQGLSSPVTKSFNRGEC | 1.98 | 0.0448 |  | 29.2 | 30.7 |  |  | ~10 | 

Now from value to binder, other results behind:

Fold FcγRI [1] [fold] | Fold FcγRIIIaV [2] [fold] | Fold FcγRIIaH [3] [fold] | Fold FcγRIIb [4] [fold] | Fold FcγRIIaR (FcγRIIaR) [fold] | binding result [2] | binding result (FcγRIIIaF) | EC50 (read off the curve) [6] [ng/mL] | Binder | also measured
 |  |  |  |  | no binding | no binding |  | ^236R/L328R (antibody, human IgG1, kappa, HuAM4G7 IgG1 Fc variant; also called Fc-KO; FcγR knockout) heavy: EVQLVESGGGLVKPGGSLKLSCAASGYTFTSYVMHWVRQAPGKGLEWIGYINPYNDGTKYNEKFQGRVTISSDKSISTAYMELSSLRSEDTAMYYCARGTYYYGTRVFDYWGQGTLVTVSSASTKGPSVFPLAPSSKSTSGGTAALGCLVKDYFPEPVTVSWNSGALTSGVHTFPAVLQSSGLYSLSSVVTVPSSSLGTQTYICNVNHKPSNTKVDKKVEPKSCDKTHTCPPCPAPELLGRGPSVFLFPPKPKDTLMISRTPEVTCVVVDVSHEDPEVKFNWYVDGVEVHNAKTKPREEQYNSTYRVVSVLTVLHQDWLNGKEYKCKVSNKARPAPIEKTISKAKGQPREPQVYTLPPSREEMTKNQVSLTCLVKGFYPSDIAVEWESNGQPENNYKTTPPVLDSDGSFFLYSKLTVDKSRWQQGNVFSCSVMHEALHNHYTQKSLSLSPGK light: DIVMTQSPATLSLSPGERATLSCRSSKSLQNVNGNTYLYWFQQKPGQSPQLLIYRMSNLNSGVPDRFSGSGSGTEFTLTISSLEPEDFAVYYCMQHLEYPITFGAGTKLEIKRTVAAPSVFIFPPSDEQLKSGTASVVCLLNNFYPREAKVQWKVDNALQSGNSQESVTEQDSKDSTYSLSSTLTLSKADYEKHKVYACEVTHQGLSSPVTKSFNRGEC | binding result [1]: no binding; binding result [3]: no binding; binding result [4]: no binding; binding result (FcγRIIaR): no binding
2.81 | 0.381 |  | 20.4 | 29.5 |  |  | ~30 | anti-CD19 antibody HuAM4G7 IgG1 Fc variant S267E (antibody, Positions are EU numbers, not positions on the UniProt entry; copies: 2 + 2) heavy: not shown light: DIVMTQSPATLSLSPGERATLSCRSSKSLQNVNGNTYLYWFQQKPGQSPQLLIYRMSNLNSGVPDRFSGSGSGTEFTLTISSLEPEDFAVYYCMQHLEYPITFGAGTKLEIKRTVAAPSVFIFPPSDEQLKSGTASVVCLLNNFYPREAKVQWKVDNALQSGNSQESVTEQDSKDSTYSLSSTLTLSKADYEKHKVYACEVTHQGLSSPVTKSFNRGEC | EC50 (read off the curve) [7]: ~20 ng/mL
3.52 | 3.15 |  | 40.6 | 41.7 |  |  | ~10 | anti-CD19 antibody HuAM4G7 IgG1 Fc variant S267E/H268E (antibody, Positions are EU numbers, not positions on the UniProt entry; also called H268E/S267E; copies: 2 + 2) heavy: not shown light: DIVMTQSPATLSLSPGERATLSCRSSKSLQNVNGNTYLYWFQQKPGQSPQLLIYRMSNLNSGVPDRFSGSGSGTEFTLTISSLEPEDFAVYYCMQHLEYPITFGAGTKLEIKRTVAAPSVFIFPPSDEQLKSGTASVVCLLNNFYPREAKVQWKVDNALQSGNSQESVTEQDSKDSTYSLSSTLTLSKADYEKHKVYACEVTHQGLSSPVTKSFNRGEC | 
 |  |  |  |  | no binding | no binding |  | G236R/L328R (antibody, human IgG1, kappa, HuAM4G7 IgG1 Fc variant; also called Fc-KO; FcγR knockout) heavy: not shown light: DIVMTQSPATLSLSPGERATLSCRSSKSLQNVNGNTYLYWFQQKPGQSPQLLIYRMSNLNSGVPDRFSGSGSGTEFTLTISSLEPEDFAVYYCMQHLEYPITFGAGTKLEIKRTVAAPSVFIFPPSDEQLKSGTASVVCLLNNFYPREAKVQWKVDNALQSGNSQESVTEQDSKDSTYSLSSTLTLSKADYEKHKVYACEVTHQGLSSPVTKSFNRGEC | binding result [1]: no binding; binding result [3]: no binding; binding result [4]: no binding; binding result (FcγRIIaR): no binding
